These results are taken from US20110263454A1, “Methods of Identifying Functional Characteristics of Promoters, Transcription Modifying Proteins and Transcription Modulating Agents” (Salk Institute for Biological Studies, priority 2008, published 2011).

The subject of one experiment is hMyoD promoter. Nature of the experiment: NHR-promoter luciferase screen, hMyoD promoter. It counts as cell-based, human. The note with it: for Luc. act., normalized to lacZ / Normalized Luc. act., normalized to control: MyoD promoter reporter, co-transfected HR, without or with its ligand; for Normalized Luc. act., normalized to control: relative to control; for luciferase activity normalized to lacZ activity and to a control, hMyoD: hMyoD promoter-luciferase, CV-1 cells, NHR +/- ligand, control = 1.00. Here is the method:
(§1) The use, feasibility, and reproducibility of the functional NHR-promoter screen in a 48-well format have been tested validated. Briefly, there were co-expressed 50 ng of each NHR/NHR homodimer or NHR/RXR heterodimer with 100 ng promoter/luciferase construct and 50 ng of LacZ (as a control for transfection efficiency) in CV-1 cells using Fugene HD (Roche) as a transfection reagent (alternatively or additionally, a CMV-YFP construct can be used as a transfection control). Each of the nuclear hormone receptors that were used in these experiments was cloned into a pcDNA3.1 vector and comprised a C-terminally linked V5H6 tag. Twenty-four hours after transfection, appropriate ligands were added, where applicable, (see Table 5 for various ligands and concentrations and after 48 hrs, samples were assayed for luciferase and LacZ activity. To measure for luciferase activity 15 ul of sample was added to 30 ul of luciferase buffer (20 mM tricine, 1.07 mM MgCarbonate, 2.67 mM MgSulfate, 0.1 mM Naz-EDTA, 5 mM DTT, 5 mM ATP, 0.15 mg/ml CoA, 0.5 mM Luciferin), mixed briefly, and run in a Perkin Elmer Victor 5 luminometer. Thus, the functional NHR-promoter screen was used to observe the transcriptional activity of 29 promoters from various physiological pathways including inflammation, lipid and sugar metabolism, cholesterol transport, xenobiotic metabolism, and circadian rhythm.
(§2) The promoters that facilitate transcription of the indicated gene products that were tested using the protocols described herein are listed in the first row of the table. The nuclear hormone receptors and, where applicable, ligands that were assayed for their transcriptional effects on the promoters are listed in the first column of the table. The data represent the luciferase activity of each sample normalized to both the lacZ activity of that sample and to a control, e.g., no NHR or ligand, as customary in the art. As described previously, these normalizations allow the transcriptional activity of each reporter cell to be compared to other samples.
(§3) Tables 7-40 show the transcriptional effects of the hormone receptors, and, where applicable, ligands (orphan receptors are screened without ligand), on each individual promoter. […] The control data of each table are shown in their last rows.

The subject of the next experiment is hMDR1 promoter. Nature of the experiment: NHR-promoter luciferase screen, hMDR1 promoter. It counts as cell-based, human. The note with it: for Luc. act., normalized to lacZ / Normalized Luc. act., normalized to control: MDR1 promoter, HR/ligand component; for hMDR1 promoter reporter activity: transcription factor +/- ligand, control = 1.00. How it is done: as §1, §2, §3

The next experiment concerns SREBP1c promoter. Nature of the experiment: NHR-promoter luciferase screen, SREBP1c promoter. Format: cell-based, mouse. The note with it: for Luc. act., normalized to lacZ / Normalized Luc. act., normalized to control: SREBP1c promoter, HR component without or with ligand; for mSREBP1-c promoter reporter activity: transcription factor +/- ligand, control = 1.00. How it is done:
as §1, §2, §3

B1: CAR: Constitutive Androstane Receptor (NR1I3), cDNA driver (protein, UniProt Q14994 1-352, looked up)
Nuclear receptor subfamily 1 …: MASREDELRNCVVCGDQATGYHFNALTCEGCKGFFRRTVSKSIGPTCPFAGSCEVSKTQRRHCPACRLQKCLDAGMRKDMILSAEALALRRAKQAQRRAQQTPVQLSKEQEELIRTLLGAHTRHMGTMFEQFVQFRPPAHLFIHHQPLPTLAPVLPLVTHFADINTFMVLQVIKFTKDLPVFRSLPIEDQISLLKGAAVEICHIVLNTTFCLQTQNFLCGPLRYTIEDGARVSPTVGFQVEFLELLFHFHGTLRKLQLQEPEYVLLAAMALFSPDRPGVTQRDEIDQLQEEMALTLQSYIKGQQRRPRDRFLYAKLLGLLAELRSINEAYGYQIQHIQGLSAMMPLLQEICS
Regarding B1, in the experiment on hMyoD promoter, the “Luc. act., normalized to lacZ” value was determined as 51.2; the “Normalized Luc. act., normalized to control” value is reported as 0.8; the “luciferase activity normalized to lacZ activity and to a control, hMyoD” value (“luciferase activity normalized” for short) is 0.81. Besides, in the experiment with hMDR1 promoter, the “Luc. act., normalized to lacZ” value worked out at 0.2; the “Normalized Luc. act., normalized to control” value is reported as 0.7; the “hMDR1 promoter reporter activity” value turned out to be 0.68. Also, in the experiment on SREBP1c promoter, the “Luc. act., normalized to lacZ” value is on record as 312.9; the “Normalized Luc. act., normalized to control” value stood at 1.0; the “mSREBP1-c promoter reporter activity” value was found to be 0.97.

B2: PXR: Pregnane X Receptor (NR1I2), cDNA driver (protein, UniProt O75469 1-434, looked up)
Nuclear receptor subfamily 1 …: MEVRPKESWNHADFVHCEDTESVPGKPSVNADEEVGGPQICRVCGDKATGYHFNVMTCEGCKGFFRRAMKRNARLRCPFRKGACEITRKTRRQCQACRLRKCLESGMKKEMIMSDEAVEERRALIKRKKSERTGTQPLGVQGLTEEQRMMIRELMDAQMKTFDTTFSHFKNFRLPGVLSSGCELPESLQAPSREEAAKWSQVRKDLCSLKVSLQLRGEDGSVWNYKPPADSGGKEIFSLLPHMADMSTYMFKGIISFAKVISYFRDLPIEDQISLLKGAAFELCQLRFNTVFNAETGTWECGRLSYCLEDTAGGFQQLLLEPMLKFHYMLKKLQLHEEEYVLMQAISLFSPDRPGVLQHRVVDQLQEQFAITLKSYIECNRPQPAHRFLFLKIMAMLTELRSINAQHTQRLLRIQDIHPFATPLMQELFGITGS
Regarding B2, in the experiment with hMyoD promoter, the “Luc. act., normalized to lacZ” value is recorded as 50.6; the “Normalized Luc. act., normalized to control” value worked out at 0.8; the “luciferase activity normalized” value was found to be 0.80. In the experiment on hMDR1 promoter, the “Luc. act., normalized to lacZ” value is reported as 0.3; the “Normalized Luc. act., normalized to control” value is reported as 1.1; the “hMDR1 promoter reporter activity” value came out at 1.10. Moreover, in the experiment on SREBP1c promoter, the “Luc. act., normalized to lacZ” value amounted to 486.8; the “Normalized Luc. act., normalized to control” value is recorded as 1.5; the “mSREBP1-c promoter reporter activity” value was 1.51.

B3: FXR: Farnesoid X Receptor (NR1H4), cDNA driver (protein, UniProt Q96RI1 1-486, looked up)
Bile acid receptor: MVMQFQGLENPIQISPHCSCTPSGFFMEMMSMKPAKGVLTEQVAGPLGQNLEVEPYSQYSNVQFPQVQPQISSSSYYSNLGFYPQQPEEWYSPGIYELRRMPAETLYQGETEVAEMPVTKKPRMGASAGRIKGDELCVVCGDRASGYHYNALTCEGCKGFFRRSITKNAVYKCKNGGNCVMDMYMRRKCQECRLRKCKEMGMLAECMYTGLLTEIQCKSKRLRKNVKQHADQTVNEDSEGRDLRQVTSTTKSCREKTELTPDQQTLLHFIMDSYNKQRMPQEITNKILKEEFSAEENFLILTEMATNHVQVLVEFTKKLPGFQTLDHEDQIALLKGSAVEAMFLRSAEIFNKKLPSGHSDLLEERIRNSGISDEYITPMFSFYKSIGELKMTQEEYALLTAIVILSPDRQYIKDREAVEKLQEPLLDVLQKLCKIHQPENPQHFACLLGRLTELRTFNHHHAEMLMSWRVNDHKFTPLLCEIWDVQ
B3: in the experiment with hMyoD promoter, the “Luc. act., normalized to lacZ” value is 36.5; the “Normalized Luc. act., normalized to control” value is reported as 0.6; the “luciferase activity normalized” value is on record as 0.58. In the experiment on hMDR1 promoter, the “Luc. act., normalized to lacZ” value came to 0.2; the “Normalized Luc. act., normalized to control” value worked out at 0.6; the “hMDR1 promoter reporter activity” value is recorded as 0.61. Besides, in the experiment with SREBP1c promoter, the “Luc. act., normalized to lacZ” value was 551.0; the “Normalized Luc. act., normalized to control” value worked out at 1.7; the “mSREBP1-c promoter reporter activity” value is listed as 1.71.

B4: RARg: Retinoic acid receptor γ (NR1B3), nuclear hormone receptor cDNA driver (protein, UniProt P13631 1-454, looked up)
Retinoic acid receptor gamma: MATNKERLFAAGALGPGSGYPGAGFPFAFPGALRGSPPFEMLSPSFRGLGQPDLPKEMASLSVETQSTSSEEMVPSSPSPPPPPRVYKPCFVCNDKSSGYHYGVSSCEGCKGFFRRSIQKNMVYTCHRDKNCIINKVTRNRCQYCRLQKCFEVGMSKEAVRNDRNKKKKEVKEEGSPDSYELSPQLEELITKVSKAHQETFPSLCQLGKYTTNSSADHRVQLDLGLWDKFSELATKCIIKIVEFAKRLPGFTGLSIADQITLLKAACLDILMLRICTRYTPEQDTMTFSDGLTLNRTQMHNAGFGPLTDLVFAFAGQLLPLEMDDTETGLLSAICLICGDRMDLEEPEKVDKLQEPLLEALRLYARRRRPSQPYMFPRMLMKITDLRGISTKGAERAITLKMEIPGPMPPLIREMLENPEMFEDDSSQPGPHPNASSEDEVPGGQGKGGLKSPA
Regarding B4, in the experiment on hMyoD promoter, the “Luc. act., normalized to lacZ” value stood at 104.5; the “Normalized Luc. act., normalized to control” value is recorded as 1.6; the “luciferase activity normalized” value is 1.65. In the experiment on hMDR1 promoter, the “Luc. act., normalized to lacZ” value is 0.3; the “Normalized Luc. act., normalized to control” value was 0.8; the “hMDR1 promoter reporter activity” value was found to be 0.85. Moreover, in the experiment with SREBP1c promoter, the “Luc. act., normalized to lacZ” value was 1052.4; the “Normalized Luc. act., normalized to control” value worked out at 3.3; the “mSREBP1-c promoter reporter activity” value worked out at 3.27.

B5: RARb: Retinoic acid receptor β (NR1B2), nuclear hormone receptor cDNA driver (protein, UniProt P10826 1-455, looked up)
Retinoic acid receptor beta: MTTSGHACPVPAVNGHMTHYPATPYPLLFPPVIGGLSLPPLHGLHGHPPPSGCSTPSPATIETQSTSSEELVPSPPSPLPPPRVYKPCFVCQDKSSGYHYGVSACEGCKGFFRRSIQKNMIYTCHRDKNCVINKVTRNRCQYCRLQKCFEVGMSKESVRNDRNKKKKETSKQECTESYEMTAELDDLTEKIRKAHQETFPSLCQLGKYTTNSSADHRVRLDLGLWDKFSELATKCIIKIVEFAKRLPGFTGLTIADQITLLKAACLDILILRICTRYTPEQDTMTFSDGLTLNRTQMHNAGFGPLTDLVFTFANQLLPLEMDDTETGLLSAICLICGDRQDLEEPTKVDKLQEPLLEALKIYIRKRRPSKPHMFPKILMKITDLRSISAKGAERVITLKMEIPGSMPPLIQEMLENSEGHEPLTPSSSGNTAEHSPSISPSSVENSGVSQSPLVQ
For the molecule B5, in the experiment with hMyoD promoter, the “Luc. act., normalized to lacZ” value was 123.5; the “Normalized Luc. act., normalized to control” value was determined as 1.9; the “luciferase activity normalized” value was 1.95. For the same molecule, in the experiment on hMDR1 promoter, the “Luc. act., normalized to lacZ” value is 0.3; the “Normalized Luc. act., normalized to control” value is on record as 1.0; the “hMDR1 promoter reporter activity” value turned out to be 0.97. Further, in the experiment on SREBP1c promoter, the “Luc. act., normalized to lacZ” value is listed as 1056.4; the “Normalized Luc. act., normalized to control” value worked out at 3.3; the “mSREBP1-c promoter reporter activity” value was determined as 3.28.

B6: PPARd: Peroxisome proliferator activated receptor δ (NR1C2), cDNA driver (protein, UniProt Q03181 1-441, looked up)
Peroxisome …: MEQPQEEAPEVREEEEKEEVAEAEGAPELNGGPQHALPSSSYTDLSRSSSPPSLLDQLQMGCDGASCGSLNMECRVCGDKASGFHYGVHACEGCKGFFRRTIRMKLEYEKCERSCKIQKKNRNKCQYCRFQKCLALGMSHNAIRFGRMPEAEKRKLVAGLTANEGSQYNPQVADLKAFSKHIYNAYLKNFNMTKKKARSILTGKASHTAPFVIHDIETLWQAEKGLVWKQLVNGLPPYKEISVHVFYRCQCTTVETVRELTEFAKSIPSFSSLFLNDQVTLLKYGVHEAIFAMLASIVNKDGLLVANGSGFVTREFLRSLRKPFSDIIEPKFEFAVKFNALELDDSDLALFIAAIILCGDRPGLMNVPRVEAIQDTILRALEFHLQANHPDAQYLFPKLLQKMADLRQLVTEHAQMMQRIKKTETETSLHPLLQEIYKDMY
As to B6, in the experiment with hMyoD promoter, the “Luc. act., normalized to lacZ” value was 59.6; the “Normalized Luc. act., normalized to control” value was 0.9; the “luciferase activity normalized” value was 0.94. In the experiment on hMDR1 promoter, the “Luc. act., normalized to lacZ” value is listed as 0.3; the “Normalized Luc. act., normalized to control” value is 0.9; the “hMDR1 promoter reporter activity” value is recorded as 0.90. In the experiment with SREBP1c promoter, the “Luc. act., normalized to lacZ” value is recorded as 658.7; the “Normalized Luc. act., normalized to control” value was 2.0; the “mSREBP1-c promoter reporter activity” value came to 2.04.
